In article PMC8488560:

Biological target: clathrin (triskelia purified from pig brain clathrin-coated vesicles) (pig)
Experiment: cryo-EM structure; clathrin cages assembled with a 60-fold molar excess of β2HA; single particle analysis of minicoat cages, signal subtraction, masked 3D classification and localized reconstruction; compared with clathrin-only minicoat cages

stoichiometry N (β2HA per terminal domain): 0.5
Substance: β2-adaptin 616-951, hinge and appendage of the human β2 subunit of the AP2 complex (β2HA) (from UniProt P63010-2 616-951) (domain or fragment)
